Consider one molecule from patent US20150299322A1 (Dana-Farber, published 2015).

Test [1] addresses T1, recombinant mRGMc-HIS (R&D) (mouse, UniProt Q7TQ32 33-393, limits assumed).
T1 construct: Bought from R&D; also called hemojuvelin; not shown: HIS tag
T1 sequence (looked up): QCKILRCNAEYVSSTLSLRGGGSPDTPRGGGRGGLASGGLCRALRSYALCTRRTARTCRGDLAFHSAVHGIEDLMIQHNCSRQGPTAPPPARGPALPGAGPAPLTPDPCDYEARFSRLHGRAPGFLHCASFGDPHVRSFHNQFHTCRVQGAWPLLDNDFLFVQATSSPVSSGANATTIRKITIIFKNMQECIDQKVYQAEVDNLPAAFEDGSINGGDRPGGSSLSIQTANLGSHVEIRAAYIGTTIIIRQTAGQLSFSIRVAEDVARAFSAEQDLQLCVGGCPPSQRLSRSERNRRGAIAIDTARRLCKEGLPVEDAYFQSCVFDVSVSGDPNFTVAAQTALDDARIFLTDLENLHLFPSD
The test is described as follows: ELISA, coated mRGMc-HIS. Here is the method: (§1) To examine RGMa/RGMb/RGMc and PD-L2 interaction, 96-well ELISA plates were coated with 2 or 5 μg/ml of recombinant mRGMa-HIS, mRGMb-HIS, mRGMc-HIS, or hRGMb-HIS (R&D). Then, serial dilutions of mPD-L2-hIgG1/IgA, mPD-L2-mIgG2a/IgA, hPD-L2-mIgG2a or control-Ig fusion proteins were added and incubated for 1h at 37° C. Fab₂ goat anti-hIgG-HRP (Jackson ImmunoResearch Laboratories) or rat anti-mIgG2a-HRP (BD Biosciences) at 1:1000 or 1:10000 were used for detection.

Test [2] addresses T2, recombinant mRGMa-HIS (R&D) (mouse, UniProt Q6PCX7 48-427, limits assumed).
T2 construct: Bought from R&D; not shown: HIS tag
T2 sequence (looked up): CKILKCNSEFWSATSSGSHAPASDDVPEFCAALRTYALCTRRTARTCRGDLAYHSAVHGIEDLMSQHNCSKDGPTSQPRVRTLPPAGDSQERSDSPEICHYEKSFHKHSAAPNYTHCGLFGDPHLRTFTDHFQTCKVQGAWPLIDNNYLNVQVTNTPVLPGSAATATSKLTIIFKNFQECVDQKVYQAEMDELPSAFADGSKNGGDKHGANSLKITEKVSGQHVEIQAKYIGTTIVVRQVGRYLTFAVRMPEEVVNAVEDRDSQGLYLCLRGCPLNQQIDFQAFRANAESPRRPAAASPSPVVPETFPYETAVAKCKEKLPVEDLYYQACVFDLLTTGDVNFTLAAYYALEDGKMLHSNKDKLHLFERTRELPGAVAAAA
Description: ELISA, coated mRGMa-HIS. The procedure:
as §1

Test [3] addresses T3, recombinant mRGMb-HIS (R&D) (mouse, UniProt Q7TQ33 49-415, limits assumed).
T3 construct: Bought from R&D; not shown: HIS tag
T3 sequence (looked up): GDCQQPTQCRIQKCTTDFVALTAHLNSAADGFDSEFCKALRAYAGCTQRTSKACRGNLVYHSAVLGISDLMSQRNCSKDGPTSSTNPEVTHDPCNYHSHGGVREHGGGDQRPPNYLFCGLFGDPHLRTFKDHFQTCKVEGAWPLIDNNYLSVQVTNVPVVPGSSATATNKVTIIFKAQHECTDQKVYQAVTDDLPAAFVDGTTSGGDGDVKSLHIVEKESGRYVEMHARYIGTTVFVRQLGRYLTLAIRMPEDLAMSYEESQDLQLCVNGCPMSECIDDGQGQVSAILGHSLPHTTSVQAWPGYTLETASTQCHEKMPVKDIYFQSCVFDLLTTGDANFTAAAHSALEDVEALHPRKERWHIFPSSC
Description: ELISA, coated BMP-2/4, mRGMb-HIS and PD-L2-Ig at 10 ug/ml, detection of the hIgG part. Here is the method:
To determine if RGMb binds PD-L2 and BMP-2/4 simultaneously, 96-well ELISA plates were coated with BMP-2/4 as above. mPD-L2-hIgG1/IgA, mPD-L2-hIgG (R&D), mPD-L1-hIgG (R&D) or control-Ig fusion proteins at 10 μg/ml were preincubated with 10 μg/ml mRGMb-HIS (R&D) or buffer alone for 15 min. at room temperature (RT), then added to the plates and incubated for 1h at 37° C. Alternatively, 10 μg/ml mRGMb-HIS (R&D) or buffer alone was added first to the plates and incubated for 1h at 37° C. After wash, mPD-L2-Ig or control-Ig fusion proteins were added and incubated for 1h at 37° C. Fab₂ goat anti-hIgG-HRP (Jackson ImmunoResearch Laboratories) at 1:10000 was used for detection.
To test if RGMb can bind both PD-L2 and BMP at the same time, an ELISA was performed to analyze the binding capacity of PD-L2-Ig fusion protein to immobilized BMP-2/4 in the presence or absence of RGMb. PD-L2 could not directly bind to BMP-2/4, but in the presence of RGMb could form a complex with BMP when RGMb and PD-L2-Ig were added simultaneously (FIG. 4A-4B) or sequentially to BMP-2/4.
On the technique in general: In an ELISA, binding on a coated surface is turned into a signal by an enzyme label.

Test [4] has as its target T4, mouse RGMb (mRGMb) expressed on transfected cells (mouse, UniProt Q7TQ33 49-415).
T4 construct: whole, on cells; Also used for mRGMb in cell lysates (Western blot); also called DRAGON; 300-mRGMb cells
T4 sequence (looked up): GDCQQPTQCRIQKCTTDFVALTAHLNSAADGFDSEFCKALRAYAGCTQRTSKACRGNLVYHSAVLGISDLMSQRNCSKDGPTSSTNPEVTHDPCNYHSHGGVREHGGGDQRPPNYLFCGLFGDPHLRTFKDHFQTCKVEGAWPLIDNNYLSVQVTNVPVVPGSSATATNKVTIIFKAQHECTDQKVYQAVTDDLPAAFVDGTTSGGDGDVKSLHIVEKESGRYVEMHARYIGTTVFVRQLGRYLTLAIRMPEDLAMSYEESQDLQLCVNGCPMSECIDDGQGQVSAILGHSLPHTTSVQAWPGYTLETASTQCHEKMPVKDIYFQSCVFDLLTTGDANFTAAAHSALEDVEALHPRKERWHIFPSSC
Description: flow cytometry on mRGMb transiently transfected COS cells. The procedure:
A panel of murine activated lymphocyte cDNA expression libraries were transiently transfected into COS cells using DEAE-Dextran or Lipofectamine as facilitator (Freeman et al. (1989) J. Immunol. 143:2714-2722). After 44 hours, COS cells were harvested and panned on mPD-L2-mIgG2a/IgA coated petri plates. Episomal DNA was recovered and electroporated into E. coli DH10B/P3. Spheroplast fusion was used to reintroduce the plasmids into COS cells for subsequent rounds of expression and panning. Before the second and third rounds, COS cells expressing PD-1 were removed by incubating with PD-1 mAb followed by depletion with goat anti-rat IgG magnetic beads. After the third round of panning, individual plasmids were transfected into COS cells and binding of PD-L2-Ig to RGMb was verified by flow cytometry on mRGMb transiently transfected COS cells. At least four independent mRGMb cDNA clones were isolated.

The target in test [5] is T5, recombinant hRGMb-HIS (R&D) (human, UniProt Q6NW40 46-413).
T5 construct: Bought from R&D; not shown: HIS tag
T5 sequence: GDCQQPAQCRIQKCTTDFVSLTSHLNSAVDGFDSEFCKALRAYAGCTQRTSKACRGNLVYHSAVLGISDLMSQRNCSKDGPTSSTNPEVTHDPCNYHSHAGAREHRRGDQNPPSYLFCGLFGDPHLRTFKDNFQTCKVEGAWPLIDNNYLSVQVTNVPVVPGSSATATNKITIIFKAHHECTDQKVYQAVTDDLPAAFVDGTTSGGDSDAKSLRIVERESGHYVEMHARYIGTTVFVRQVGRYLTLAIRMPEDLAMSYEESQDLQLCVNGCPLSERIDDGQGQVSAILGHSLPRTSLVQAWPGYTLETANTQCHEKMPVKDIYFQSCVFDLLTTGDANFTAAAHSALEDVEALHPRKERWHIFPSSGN
Description: ELISA, coated hRGMb-HIS, PD-L2-Ig in solution. The procedure:
as §1

B1: mPD-L2-Ig fusion protein (construct not told at the result) (Fc fusion, mouse, UniProt Q9WUL5 20-221, looked up)
chain: LFTVTAPKEVYTVDVGSSVSLECDFDRRECTELEGIRASLQKVENDTSLQSERATLLEEQLPLGKALFHIPSVQVRDSGQYRCLVICGAAWDYKYLTVKVKASYMRIDTRILEVPGTGEVQLTCQARGYPLAEVSWQNVSVPANTSHIRTPEGLYQVTSVLRLKPQPSRNFSCMFWNAHMKELTSAIIDPLSRMEPKVPRTW
notes: extracellular domain; not shown: Ig part: the methods name mPD-L2-hIgG1/IgA, mPD-L2-mIgG2a/IgA and mPD-L2-hIgG (R&D)
With B1, the binding result is “no binding” in test [1]; “no binding” in test [2]; “binds” in test [3]; “binds” in test [4]; “binds” in test [5].
